The values that follow come from PMC10946055.

Among the targets are XPA DBD F112C (Homo sapiens, UniProt P23025 98-239, F112C); XPA DBD D114Y (Homo sapiens, UniProt P23025 98-239, D114Y); XPA DBD R130I (Homo sapiens, UniProt P23025 98-239, R130I); XPA DBD M113I (Homo sapiens, UniProt P23025 98-239, M113I); XPA DBD WT (Homo sapiens, UniProt P23025 98-239); XPA DBD Y148D (Homo sapiens, UniProt P23025 98-239, Y148D).
Assay in all cases: MST

XPA DBD Y148D, sequence (P23025 98-239 Y148D): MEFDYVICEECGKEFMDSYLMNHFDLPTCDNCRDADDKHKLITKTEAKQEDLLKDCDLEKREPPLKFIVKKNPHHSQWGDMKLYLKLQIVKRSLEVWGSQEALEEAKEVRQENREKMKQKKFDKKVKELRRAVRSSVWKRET
XPA DBD D114Y, sequence (P23025 98-239 D114Y): as the sequence (P23025 98-239 Y148D) above, with D17Y, D51Y counted along it
XPA DBD F112C, sequence (P23025 98-239 F112C): as the sequence (P23025 98-239 Y148D) above, with F15C, D51Y counted along it
XPA DBD R130I, sequence (P23025 98-239 R130I): as the sequence (P23025 98-239 Y148D) above, with R33I, D51Y counted along it
XPA DBD WT, sequence (P23025 98-239): as the sequence (P23025 98-239 Y148D) above, with D51Y counted along it
XPA DBD M113I, sequence (P23025 98-239 M113I): as the sequence (P23025 98-239 Y148D) above, with M16I, D51Y counted along it

As a reminder, the Kd is a measure of binding affinity in units of concentration. Lower therefore signals a tighter complex. As for TTTTGCGGCCGCTTTTGCGGCCGC (structured_DNA) [NER junction mimic hairpin, 8 bp with 4 nt overhang], the Kd with XPA DBD F112C was 9.2 ± 2.2 µM; in the data set with XPA DBD D114Y, 8.8 ± 1.7 µM; with XPA DBD R130I, 38 ± 22 µM; with XPA DBD M113I, 12 ± 1.9 µM; with XPA DBD WT, 7.7 ± 3.7 µM. Also, in the data set with XPA DBD Y148D, the binding result was “no binding”.
